Assay results published in paper PMC5805711 (Scientific Reports, 2018).

Key:
[1] = molecular target: T1, ubiquitin phosphorylated at serine-65 (pUb) (UniProt P0CG48 1-76, phosphoserine at 65); assay: NMR titration; 15N-labeled Ub variant titrated with unlabeled UBA; amide CSPs in 1H-15N spectra, global fit to a single-site binding model; 23 °C, 20 mM sodium phosphate pH 6.8, 0.02% NaN3, 7% D2O; settings: both partners purified
T1 construct: ubiquitin, the cut product of a ubiquitin precursor, phosphorylated at S65; Uniformly 15N-labelled for NMR; In solution two conformers in slow, pH-dependent exchange: native-like pUb^nat and alternate pUb^alt; both are this one molecule; also called S65 pUb; phosphorylated Ub

[2] = molecular target: T2, wild-type ubiquitin (Ub^WT) (UniProt P0CG48 1-76); assay: as above; settings: both partners purified
T2 construct: ubiquitin, the cut product of a ubiquitin precursor; last residue G76; Uniformly 15N-labelled for NMR; also called WT Ub; source: grown and purified using the standard Ub purification protocol; grown in 15N-enriched minimal media for NMR

Kd [1]: 8 ± 2.5 µM
Kd [2]: 4.9 ± 1.2 µM
B1: ubiquitin-associated domain (UBA) of human ubiquilin-1/hPLIC1, V545Y (domain or fragment, UniProt Q9UMX0 545-586, looked up)
chain: YRFQQQLEQLSAMGFLNREANLQALIATGGDINAAIERLLGS
notes: UBA domain of human ubiquilin-1 (hPLIC1) with V545Y; V545Y was introduced to allow concentration determination by absorbance at 280 nm; Unlabelled in the titrations; also called ubiquilin-1 UBA
